Consider two substances from publication PMC4259810.

Assay [1] deals with DLC1 Rho-GAP domain, 609-878 (UniProt Q96QB1). Put plainly: GST pull-down from cotransfected cells, GFP blot. As to conditions: sites S120,S205,S422,S509.
Assay [2] concerns the target DLC1 500-1,091 (UniProt Q96QB1). Kind of assay: GST pull-down from cotransfected cells, GFP blot. As to conditions: reference: GST-(1–550)-WT; sites S120,S205,S422,S509.

As for “DLC1 80-550 (from UniProt Q96QB1-1) GST-DLC1(80–550)-4A”, the “binding against the reference” value in assay [1] (reference: GST-DLC1(80–550)-WT) was “stronger”.

Consider “DLC1 1-550 (from UniProt Q96QB1-1) GST-(1–550)-4A”, for which the “binding against the reference” value in assay [2] and in assay [1] (reference: GST-(1–550)-WT) was “stronger” throughout.
